{
  "source": "patent US20030134779A1",
  "about": "“Method and composition for treatment and/or prevention of antibiotic-resistant microorganism infections” (priority 2002, published 2003)",
  "format_in_all_cases": "cell-based, Staphylococcus aureus",
  "key": {"S. aureus SHY97-4320 [1]": {"test_system": "S. aureus SHY97-4320", "experiment": "Checkerboard MICs and FIC index, penicillin with bovine LF", "description": "(§1) The MICs were determined by both macrodilution (1 ml/tube) and microdilution (100 μl/well) in sterile 96 well microtiter plates (International Nunc, Napierville, Ill.) techniques in three separate experiments according to the National Committee for Clinical Laboratory Standards (1992 and 1999) in three separate experiments. Serial 2-fold dilutions in MHB of LF, LFC, antibiotic or combination of LF or LFC with antibiotic were inoculated with an overnight culture at a final inoculum of 10^6 cfu/ml in MHB. Effect of LF combination with antibiotic on MICs were determined by adding 0.5 mg or 1 mg/ml of LF to each antibiotic dilution. The MIC was defined as the lowest concentration of drug (highest dilution) that caused a complete inhibition of bacterial growth after an incubation of 18 h. Effect of LF or LFC combination with antibiotic on MIC was also determined by checkerboard method using 96 well microtiter plates. Each antibiotic dilution (50 μl) was serially added to the wells in vertical rows starting from the top (lower dilution) to the bottom. Lactoferrin or LFC (50 μl) were added to 50 μl of each antibiotic dilution and serially diluted starting at the left (lower dilution) to the right. After inoculation, the final concentration of antibiotic from top to bottom were 32 to 8, 2 to 0.5, 0.5 to 0.125 μg/ml for penicillin, cefazolin and neomycin, respectively. From left to right, the concentration of LF or LFC were 25 to 0.0244 mg/ml or 256 to 0.5 μg/ml respectively in a final volume of 100 μl/well. The microplate's were incubated at 37° C. for 24 h. Bacterial growth was measured optically at 540 nm using Spectra Max 250 Microplate Spectrophotometer System of Molecular Device (Fisher Scientific, Ottawa, Canada). Tubes were incubated at 37° C. for 18 h and bacterial growth was measured by visual examination and optically at 540 nm using a spectrophotometer (Philips PU 8800; Pye Unican Ltd, Cambridge, UK). The fractional inhibitory concentration (FIC) was calculated as described by Eliopoulos and Moellering (1991).\n(§2) FIC antibiotic A=MICantibiotic A (in the presence of antibiotic B)/MICantibiotic A alone. FIC Index=FICantibiotic A+FICantibiotic B\n(§3) The effects of the antibiotics were considered to be synergistic or indifferent when FIC Index was<1 or>1, respectively."}, "S. aureus ATCC 25923": {"test_system": "S. aureus ATCC 25923", "experiment": "Checkerboard MICs and FIC index, penicillin with bovine LF", "description": "as §1, §2, §3"}, "S. aureus PC-1": {"test_system": "S. aureus PC-1", "experiment": "Checkerboard MICs and FIC index, penicillin with bovine LF", "description": "as §1, §2, §3"}, "S. aureus SHY97-3906": {"test_system": "S. aureus SHY97-3906", "experiment": "Checkerboard MICs and FIC index, penicillin with bovine LF", "description": "as §1, §2, §3"}, "S. aureus": {"test_system": "S. aureus", "experiment": "Growth inhibition and influence of iron", "description": "The effect of LF or LFC at concentration sub-MICs alone or in combination with sub-MICs of antibiotics on bacterial growth rate of S. aureus, E. coli and K. pneumoniae was determined by monitoring bacterial cultures in MHB with the O.D.600 nm or by the count of colony forming unit per ml (cfu/ml). A volume of 2.5 ml of overnight cultures in MHB adjusted to 0.5-1 McFarland standard in saline were used to inoculate a final volume of 25 ml of fresh MHB containing the desired concentration of tested compounds. All flasks were then incubated at 37° C. with agitation (200 rpm) for 9 h. Aliquots were removed every hour to determine the culture turbidity using the spectrophotometer Philips PU 8800 (Pye Unican Ltd, Cambridge, UK). The combined antibiotic effect on bacterial growth was also determined using concentrations of LF in the presence of different concentrations of antibiotics. Briefly, a volume of 3 ml of fresh MHB containing desired concentration of drugs was adjusted to an optical density of 0.4 at 540 nm after an overnight culture. The culture was then incubated at 37° C with agitation (200 rpm). After incubation, aliquots were removed to determine the culture turbidity (OD540nm) or cfu/ml. To determine the influence of the level of iron on of the growth inhibition by the test compound, 5 μM of FeCl3 were added to the media."}, "[2]": {"test_system": "β-lactamase induction in S. aureus SHY97-4320", "experiment": "Induction of β-lactamase after LF pre-incubation (signal transduction)", "settings": "LF 1 mg/ml added 30 or 60 min before 8 μg/ml penicillin G, 4 h", "description": "As the β-lactamase system is the best-known signal transduction system in S. aureus. We tested the ability of LF to inhibit signal transduction in S. aureus SHY97-4320 which is an inducible beta-lactamase producing strain. Bacterial cells were first exposed during 30 or 60 min to LF in broth and were further treated with 8 μg/ml of penicillin G for an additional 4 h. The cfu/ml were determined, cells aliquots were centrifuged and pellets were suspended in 10 mM HEPES buffer (pH 7.4) as mentioned above. Nitrocefin (100 μM) was added to 20 μl of cells in a final volume of 200 μl. Hydrolysis was measured at 486 nm on a Spectra Max 250 Microplate Spectrophotometer System of Molecular Device (Fisher Scientific, Ottawa, Canada). β-Lactamase activity was expressed as ΔO.D.486 nm/min and corrected for bacterial OD."}, "S. aureus SHY97-4320 [3]": {"test_system": "S. aureus SHY97-4320", "experiment": "WGA-gold labelling of cell wall and cell division, electron microscopy", "description": "To investigate the mechanism of action of LF in combination with penicillin G on cell division, transmission electron microscopy was also performed on thin section of a β-lactamase producing S. aureus SHY97-4320. Bacterial cells were grown in MHB containing 8 μg/ml of penicillin G, 1 mg/ml LF alone or in combination for 4-h at 37° C. with agitation at 150 rpm. Bacteria were harvested and incubated or not for 2-h in 0.02 M Tris (pH 7.4) containing 0.15 M NaCl, 0.5 mg/ml and 50 μl of wheat germ agglutinin (WGA) gold (Sigma Chemicals, St-Louis, Mo.) for 2 h. Bacteria cell morphology was evaluated by transmission electron microscopy as previously described. Effects of treatments were evaluated and compared by “t” test. […] The WGA has an affinity for N-acetyl-β-D-glucosamyl residues and N-acetyl-β-D-glucosamine oligomer. After treatment with LF, S. aureus cells were less covered (P<0.005) with WGA-gold (FIG. 12 and Table 3)."}, "[4]": {"settings": "in combination with penicillin, checkerboard"}},
  "data": [
    {"molecule": "LF: bovine lactoferrin, 80-kDa iron-binding glycoprotein found in milk (protein, UniProt P24627 20-708, looked up) Lactotransferrin: APRKNVRWCTISQPEWFKCRRWQWRMKKLGAPSITCVRRAFALECIRAIAEKKADAVTLDGGMVFEAGRDPYKLRPVAAEIYGTKESPQTHYYAVAVVKKGSNFQLDQLQGRKSCHTGLGRSAGWIIPMGILRPYLSWTESLEPLQGAVAKFFSASCVPCIDRQAYPNLCQLCKGEGENQCACSSREPYFGYSGAFKCLQDGAGDVAFVKETTVFENLPEKADRDQYELLCLNNSRAPVDAFKECHLAQVPSHAVVARSVDGKEDLIWKLLSKAQEKFGKNKSRSFQLFGSPPGQRDLLFKDSALGFLRIPSKVDSALYLGSRYLTTLKNLRETAEEVKARYTRVVWCAVGPEEQKKCQQWSQQSGQNVTCATASTTDDCIVLVLKGEADALNLDGGYIYTAGKCGLVPVLAENRKSSKHSSLDCVLRPTEGYLAVAVVKKANEGLTWNSLKDKKSCHTAVDRTAGWNIPMGLIVNQTGSCAFDEFFSQSCAPGADPKSRLCALCAGDDQGLDKCVPNSKEKYYGYTGAFRCLAEDVGDVAFVKNDTVWENTNGESTADWAKNLNREDFRLLCLDGTRKPVTEAQSCHLAVAPNHAVVSRSDRAAHVKQVLLHQQALFGKNGKNCPDKFCLFKSETKNLLFNDNTECLAKLGGRPTYEEYLGTEYVTAIANLKKCSTSPLLEACAFLTR", "values": [
      {"measurement": "Decrease (of MIC of LF)", "setting": "S. aureus SHY97-4320 [1]; by combination with penicillin", "result": 64, "unit": "fold"},
      {"measurement": "MIC LF", "setting": "S. aureus SHY97-4320 [1]; [4]", "result": 390, "unit": "µg/mL"},
      {"measurement": "Decrease (of MIC of LF)", "setting": "S. aureus ATCC 25923; by combination with penicillin", "result": 32, "unit": "fold"},
      {"measurement": "MIC LF", "setting": "S. aureus ATCC 25923; [4]", "result": 780, "unit": "µg/mL"},
      {"measurement": "Decrease (of MIC of LF)", "setting": "S. aureus PC-1; by combination with penicillin", "result": 64, "unit": "fold"},
      {"measurement": "MIC LF", "setting": "S. aureus PC-1; [4]", "result": 390, "unit": "µg/mL"},
      {"measurement": "Decrease (of MIC of LF)", "setting": "S. aureus SHY97-3906; by combination with penicillin", "result": 16, "unit": "fold"},
      {"measurement": "MIC LF", "setting": "S. aureus SHY97-3906; [4]", "result": 1560, "unit": "µg/mL"},
      {"measurement": "effect of addition of 5 μM of FeCl3 on LF growth inhibitory activity", "setting": "S. aureus", "result": "did not affect"},
      {"measurement": "growth inhibitory activity", "setting": "S. aureus; bovine LF saturated to 16.2% of iron", "result": "demonstrated a growth inhibitory activity"},
      {"measurement": "induction of β-lactamase by penicillin G", "setting": "[2]", "result": "completely block induction of β-lactamase"},
      {"measurement": "cell division", "setting": "S. aureus SHY97-4320 [3]; LF 1 mg/ml alone or in combination with penicillin", "result": "Groups of multiple undivided cell"},
      {"measurement": "coverage of cells with WGA-gold", "setting": "S. aureus SHY97-4320 [3]; after treatment with LF, P<0.005", "result": "less covered"}
    ]}
  ]
}
